The values that follow are results of earlier work, collected in PMC6008586, “Analysis of transition state mimicry by tight binding aminothiazoline inhibitors provides insight into catalysis by human O-GlcNAcase” (Chemical Science, 2016).

As a reminder, the pKa is the negative logarithm of the acid dissociation constant.

This series has as its target Asp174 (UniProt position 174, FALLFDDIDHN). Description: kinetics. As to conditions: the article refers the ionisation state to the resting enzyme; free-enzyme versus enzyme-substrate complex is not specified.

For “O-GlcNAcase (OGA, protein O-GlcNAc hydrolase, GH84) (Homo sapiens)”, the pKa is 5.2.
